Source: patent publication US20160257759A1 (SORRENTO THERAPEUTICS, published 2016)

Tests used:
[1] = biological target: T1, human JAG1 on cells (K562 cells; Calu-6 cells) (human, UniProt P78504 34-1218); experiment: flow cytometry on K562 cells, IgG titrated, PE anti-human IgG, median fluorescence
T1 construct: whole, on cells; Calu-6 are called JAG-1 expressing cells; also called JAG-1 expressing cells
Protocol: This example describes a cellular binding assay to determine the EC₅₀ for certain anti-JAG1 antibodies binding to K562 cells (ATCC CCL-243), where the concentration at which 50% binding saturation (EC₅₀) is reached. In this example, K562 cells were resuspended in FACS Buffer (2% Fetal Bovine Serum in PBS) at 1×10⁶ cells/ml. 50 μl (0.5×10⁵ cells) were aliquoted into the wells of a 96-well plate. Plated cells were spun down and the supernatant discarded. Cells were resuspended in serially diluted concentrations of each JAG1 IgG in 30 μl FACS Buffer done in triplicate. The antibodies and cells were incubated for 1 hr at 4° C. and then washed 2× with FACS Buffer. Cells were resuspended in 50 μl goat anti-human IgG (γ-chain specific)-PE-conjugated secondary antibody (Southern Biotech #2040-09) diluted 1:750 in FACS Buffer. Cells were further incubated in the dark for 30 min at 4° C. and then washed 1× with FACS Buffer. The cells were resuspended in a final volume of 30 μl FACS Buffer and analyzed using an Intellicyt Flow Cytometer. Median fluorescence in the FL-2H channel was determined using FlowJo software and EC₅₀ value was determined by a variable slope non-linear regression using ForeCyte software.

[2] = biological target: T1, human JAG1 on cells (K562 cells; Calu-6 …); experiment: cell-based or functional assay
[3] = biological target: T2, biotinylated human delta-like 1 (DLL1) (human, UniProt O00548 18-540, limits assumed, biotinylated (sites not given)); experiment: capture ELISA: B10 IgG captured on anti-human lambda, serially diluted biotinylated DLL1, neutravidin-AP, PNPP, absorbance
T2 sequence (looked up): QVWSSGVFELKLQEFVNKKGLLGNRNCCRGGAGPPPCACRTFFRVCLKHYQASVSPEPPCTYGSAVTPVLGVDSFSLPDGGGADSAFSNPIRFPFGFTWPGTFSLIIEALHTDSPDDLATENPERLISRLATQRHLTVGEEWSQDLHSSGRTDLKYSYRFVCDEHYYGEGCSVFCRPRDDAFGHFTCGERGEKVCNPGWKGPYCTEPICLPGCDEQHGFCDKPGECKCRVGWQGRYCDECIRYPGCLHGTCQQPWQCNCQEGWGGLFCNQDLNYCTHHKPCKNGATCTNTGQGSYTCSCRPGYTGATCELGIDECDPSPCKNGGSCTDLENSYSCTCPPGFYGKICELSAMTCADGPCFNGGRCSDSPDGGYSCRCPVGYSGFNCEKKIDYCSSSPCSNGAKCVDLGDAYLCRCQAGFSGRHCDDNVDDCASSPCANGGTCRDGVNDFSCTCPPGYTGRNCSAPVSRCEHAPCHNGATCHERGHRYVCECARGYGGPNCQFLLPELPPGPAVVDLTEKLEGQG
Protocol: (§1) Finally, an ELISA assay was carried out to determine antibody cross-reactivity to delta-like 1 (DLL1) and delta-like 2 (DLL2). One ELISA plate was coated with anti-human lambda and another ELISA plate was coated with anti-human kappa overnight at 4° C. The next morning each plate was blocked with a 1:1 mixture of casein:Super Block for 2 hours at room temperature. The B10 IgG was diluted to 0.3 μg/ml in block and added to the anti-human lambda coated wells, while the JG1H7 IgG was diluted to 0.3 μg/ml in block and added to the anti-human kappa coated wells and incubated at room temperature for 3 hours. As a control, other wells were treated with only block. After washing, serially-diluted biotinylated antigen (JAG1, DLL1, DLL2) was added to a column with captured antibody and a control column with no antibody, and incubated 1 hour at room temperature. After washing, neutravidin-AP was added, incubated for 20 min at room temperature, the plate washed and developed with 1-step PNPP, and the plate analyzed in a plate reader.

[4] = biological target: T2, biotinylated human delta-like 1 (DLL1); experiment: capture ELISA: JG1H7 IgG captured on anti-human kappa, serially diluted biotinylated DLL1, neutravidin-AP, PNPP, absorbance
Protocol: as §1

human JAG2-Fc = biological target: T3, human JAG2-Fc (human, UniProt Q9Y219 24-1080, limits assumed); experiment: ELISA: plate coated with human JAG2-Fc, serially diluted IgG, labeled goat anti-human Fd antibody, absorbance
T3 construct: not shown: Fc
Protocol: An ELISA assay was also carried out to determine the ability of the identified antibodies to bind to human JAG2. A 96-well ELISA plate was coated with human JAG2-Fc overnight. The next morning the plate was blocked with casein solution for 1 hour, followed by addition of serially diluted JG1H7 and JG1B10 IgG antibodies. As a control, antibodies were added to wells that were not coated with JAG2-Fc. After incubating for an hour, the plate was washed and labeled goat anti-human FD antibody was added for 30 minutes. The plate was washed, developed with substrate and the absorbance in each well measured on a spectrophotometer.

[5] = biological target: T4, Recombinant human JAG1/His (human, UniProt P78504 34-1046, limits assumed); experiment: SPR (BiaCore), antibody captured on anti-human Fc CM5 chip, JAG1/His as analyte, 1:1 Langmuir fit
T4 construct: Analyte of the BiaCore assay; also called human JAW [sic]; not shown: His tag
Protocol: The binding affinity of antibody JG1H7 for human JAG1 was tested using a BiaCore assay. Specifically, anti-human Fc antibody (GE, BR-1008-39) was immobilized on a CM5 sensor chip to approximately 700 RU using standard NHS/EDC coupling methodology. Antibodies (about 10 μg/ml) were captured for 60 s at a flow rate 10 μl/min. Recombinant human JAG1/His was serially diluted in running buffer (HBS-EP). All measurements were conducted with a flow rate of 30 μL/min Surfaces were regenerated with 3M MgCl₂ for 60 s. A 1:1 (Langmuir) binding model was used to fit the data.

T1 sequence (P78504 34-1218): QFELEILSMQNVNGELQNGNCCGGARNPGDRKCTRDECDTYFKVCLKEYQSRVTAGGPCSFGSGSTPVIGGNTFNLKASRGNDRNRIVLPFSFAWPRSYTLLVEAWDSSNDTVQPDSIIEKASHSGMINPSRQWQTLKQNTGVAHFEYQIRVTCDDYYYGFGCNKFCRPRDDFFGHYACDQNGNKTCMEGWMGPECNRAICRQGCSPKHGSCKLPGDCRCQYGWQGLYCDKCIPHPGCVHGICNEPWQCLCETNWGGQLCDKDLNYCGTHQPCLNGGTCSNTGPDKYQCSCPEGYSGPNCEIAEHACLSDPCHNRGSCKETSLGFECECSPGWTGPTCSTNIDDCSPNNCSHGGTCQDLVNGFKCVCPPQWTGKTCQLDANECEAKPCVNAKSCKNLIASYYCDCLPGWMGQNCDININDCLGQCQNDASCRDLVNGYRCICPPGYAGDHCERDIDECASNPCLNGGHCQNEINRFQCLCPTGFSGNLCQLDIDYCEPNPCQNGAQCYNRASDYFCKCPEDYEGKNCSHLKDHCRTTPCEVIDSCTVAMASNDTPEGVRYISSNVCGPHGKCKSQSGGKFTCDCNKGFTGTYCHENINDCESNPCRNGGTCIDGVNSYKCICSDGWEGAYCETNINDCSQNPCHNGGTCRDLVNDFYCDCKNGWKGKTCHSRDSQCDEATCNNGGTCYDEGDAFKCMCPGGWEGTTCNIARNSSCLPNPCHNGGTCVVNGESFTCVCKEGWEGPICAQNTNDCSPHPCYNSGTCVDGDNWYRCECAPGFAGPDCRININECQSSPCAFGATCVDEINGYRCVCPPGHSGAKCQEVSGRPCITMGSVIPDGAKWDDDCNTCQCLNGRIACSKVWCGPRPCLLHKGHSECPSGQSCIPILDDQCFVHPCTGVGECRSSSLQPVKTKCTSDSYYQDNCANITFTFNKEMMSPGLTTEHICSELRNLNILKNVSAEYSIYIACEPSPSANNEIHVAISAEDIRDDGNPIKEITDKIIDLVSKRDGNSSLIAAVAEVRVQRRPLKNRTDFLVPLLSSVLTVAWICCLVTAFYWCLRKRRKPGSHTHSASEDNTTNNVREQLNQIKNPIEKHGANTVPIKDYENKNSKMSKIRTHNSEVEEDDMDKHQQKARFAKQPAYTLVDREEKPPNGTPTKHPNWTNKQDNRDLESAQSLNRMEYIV
T3 sequence (Q9Y219 24-1080 limits assumed): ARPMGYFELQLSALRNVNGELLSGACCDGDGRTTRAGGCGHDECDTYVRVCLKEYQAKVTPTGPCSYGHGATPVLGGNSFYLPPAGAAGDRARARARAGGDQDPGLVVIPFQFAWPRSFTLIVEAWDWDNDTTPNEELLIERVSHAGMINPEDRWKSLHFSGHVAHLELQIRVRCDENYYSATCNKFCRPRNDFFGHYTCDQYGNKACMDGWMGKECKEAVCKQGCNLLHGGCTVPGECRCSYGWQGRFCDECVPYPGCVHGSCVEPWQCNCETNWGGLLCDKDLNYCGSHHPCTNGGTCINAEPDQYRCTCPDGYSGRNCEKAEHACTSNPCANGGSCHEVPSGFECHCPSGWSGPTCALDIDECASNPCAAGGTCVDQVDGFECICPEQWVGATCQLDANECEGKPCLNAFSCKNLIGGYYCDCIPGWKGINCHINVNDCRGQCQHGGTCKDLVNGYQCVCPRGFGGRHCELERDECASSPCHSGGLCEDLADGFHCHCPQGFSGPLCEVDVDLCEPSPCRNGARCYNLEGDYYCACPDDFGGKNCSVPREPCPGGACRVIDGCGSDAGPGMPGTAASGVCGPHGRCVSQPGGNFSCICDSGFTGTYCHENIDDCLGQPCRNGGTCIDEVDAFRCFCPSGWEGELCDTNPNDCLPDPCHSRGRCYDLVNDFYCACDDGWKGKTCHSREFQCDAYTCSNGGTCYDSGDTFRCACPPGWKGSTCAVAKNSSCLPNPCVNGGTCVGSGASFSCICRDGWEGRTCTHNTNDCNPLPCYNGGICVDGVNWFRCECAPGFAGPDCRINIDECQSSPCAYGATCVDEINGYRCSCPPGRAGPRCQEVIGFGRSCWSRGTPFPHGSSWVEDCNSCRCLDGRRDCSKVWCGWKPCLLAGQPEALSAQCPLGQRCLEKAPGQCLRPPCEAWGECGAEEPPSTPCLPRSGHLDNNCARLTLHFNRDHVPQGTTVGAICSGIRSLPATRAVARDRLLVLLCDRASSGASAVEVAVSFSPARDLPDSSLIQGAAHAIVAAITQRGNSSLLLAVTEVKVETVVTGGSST

B1: JG1A7 (antibody, V domains shown)
VH: QVQLVESGGGLVKPGGSLRLSCAASGFTFSDYYMSWIRQAPGKGLEWVSYISSSGSTIYYADSVKGRFTISRDNAKNSLYLQMNSLRAEDTAVYYCARVNSGYDAVDYWGQGTLVTVSS
VL: QSALTQPPSVSGAPGQTVTISCTGSRSNIGTYDVHWYQQFAGSAPKLLIYHNNDRSSGVPDRFSGSKSGTSASLAITGLQAEDEAVYFCQSHDNVLGGVFGGGTKLTVL
**Q.** With B1 as the binder, how does the EC50 [1] read?
**A.** < 0.001 µM

B2: JH1F4 (antibody, V domains shown)
VH: QVQLVQSGAEVKKPGASVKVSCKASGYTFTSYAMHWVRHAPGQRLEWMGWINAGNGNTKYSQKFQGRVTITRDTSASTAYMELSSLRSEDTAVYYCARDLDYYYGMDVWGQGTTVTVSS
VL: QPVLTQPPSASGTPGQRVTISCSGSSSNIGSNIVNWYQQLPGTAPKLLIYSNNRRPSGVPDRFSGSKSGSSASLAISGLQSEDEADYYCAAWDATLGGLYVFGTGTKVTVL
notes: also called JH-F4
**Q.** For B2, which EC50 [1] is on record?
**A.** 0.097 µM

B3: JG1H11 (antibody, V domains shown)
VH: EVQLVESGGGVVQPGRSLRLSCAASGFTFSSYGMHWVRQAPGKGLEWVAVISYDGSNKYYADSVKGRFTISRDNSKNTLYLQMNSLRAEDTAVYYCAKDDWNYALDYWGQGTLVTVSS
VL: QPVLTQPASVSGSPGQSITISCTGTRSDVGGYSYVSWYQQHPGKAPKLIYDVTKRPSGVSNRFSGSKSGNTASLTISGLQAEDEADYYCSSYTSSSTYVFGTGTKVTVL
**Q.** For B3, which “IC50 (nM) of killing of Calu-6 cells by the antibody pre-complexed with Protein G-DM1 (1:4), Cell Titer Glo after 6 days” value (from here on “IC50 (nM) of killing of Calu-6 cells”) [2] is on record?
**A.** 26.5 nM

**Q.** And the EC50 [1]?
**A.** 0.027 µM

B4: JG1B10 (antibody, V domains shown)
VH: EVQLVESGGGLVQPGGSLRLSCAASGSTFSSYGMHWVRQAPGKGLEWVAVIWYDGSNKYYADSVKGRFTISRDNSKNTLYLQMNSLRAEDTAVYYCARGYNHDYWGQGTLVTVSS
VL: LPVLTQPASVSGSPGQSITISCTGTSSDVGGYNYVSWYQQHPGKAPKLMIYDVSNRPSGVSNRFSGSKSGNTASLTISGLQAEDEADYYCSSYTSSSTYVFGIGTKLTVL
notes: also called B10JAG1
**Q.** How did the “IC50 (nM) of killing of Calu-6 cells” value [2] turn out when B4 was run?
**A.** 1.35 nM

**Q.** Does B4 bind [3]?
**A.** no binding

**Q.** And the EC50 [1]?
**A.** 0.032 µM

B5: JG1H7 (antibody, V domains shown)
VH: QVQLVQSGGGLIQPGGSLRLSCAASAFTVSNFYMTWVRQAPGKGLEWVSVIDSGGNTYYADSVRGRFTISRDNSKNTLFLQMNSLRAEDTAVYYCARDLGYYYAMDVWGQGTTVTVSS
VL: DIVMTQSPSSLSASVGDRVTITCRASQSISTSLNWYQQKPGKAPKLLIYAASSLQSGVPSRFSGSGSGTDFTLTISSLQPEDFATYYCQQSYSTPTFGQGTKLEIK
notes: captured by anti-human Fc in the BiaCore assay
**Q.** Which results are given for B5?
**A.** IC50 (nM) of killing of Calu-6 cells by the antibody pre-complexed with Protein G-DM1 (1:4), Cell Titer Glo after 6 days [2]: 3.89 nM; binding result [4]: no binding; EC50 (read off the curve) (human JAG2-Fc): ~0.1 mg/L; EC50 [1]: 0.016 µM; Ka [5]: 4.8e+06 M⁻¹; Kd [5]: 0.208 µM; koff [5]: 0.0411 s⁻¹; kon [5]: 197000 M⁻¹ s⁻¹

B6: JG1C8 (antibody, V domains shown)
VH: EVQLVQSGAEVKKPGSSVKVSCKASGGTFSSYAISWVRQAPGQGLEWMGWISAYNGNTNYAQKLQGRVTMTTDTSTSTAYMELRSLRSDDTAVYYCARSRYDFWSGYYSGMDVWGQGTTVTVSS
VL: NFMLTQPRSVSGSPGQSVTISCTGTSSDVGGYHYVSWYQQHPGKAPKLIIYDVSRRPSGVPDRFSGSKSGNTASLTVSGLQAEDEADYYCSSYGGSNNFVFGTGTKLTVL
**Q.** Which “IC50 (nM) of killing of Calu-6 cells” value [2] does the source give for B6 here?
**A.** 87.3 nM

**Q.** What about the EC50 [1] of the same binder?
**A.** 0.016 µM
